Assay results as given in patent publication US6001988, “High affinity nucleic acid ligands to lectins” (NeXstar Pharmaceuticals, Inc.).

Legend:
L-selectin (LS-Rg) [1] = biological target: T1, L-selectin (LS-Rg) (Homo sapiens, UniProt P14151 P14151:39-332); assay: filter; 4 C, HSMC; 9.2 nM at room temp; conditions: tags: human IgG2 Fc fusion (provided by A. Varki); label: 32P; hairpin
T1 chain: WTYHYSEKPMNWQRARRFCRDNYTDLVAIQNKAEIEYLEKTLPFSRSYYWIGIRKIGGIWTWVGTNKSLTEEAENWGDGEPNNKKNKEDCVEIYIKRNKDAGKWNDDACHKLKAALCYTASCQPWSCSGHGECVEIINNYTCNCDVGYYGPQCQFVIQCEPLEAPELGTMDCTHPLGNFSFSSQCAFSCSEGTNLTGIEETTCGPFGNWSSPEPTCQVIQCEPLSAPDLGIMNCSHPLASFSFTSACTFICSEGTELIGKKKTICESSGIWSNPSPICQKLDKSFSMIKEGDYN
Procedure: (§1) As described in SELEX Patent Applications, the nitrocellulose filter partitioning method was used to determine the affinity of RNA ligands for LS-Rg and for other proteins. Filter discs (nitrocellulose/cellulose acetate mixed matrix, 0.45 um pore size, Millipore) were placed on a vacuum manifold and washed with 2 ml of HSMC buffer under vacuum. Reaction mixtures, containing ^32P labeled RNA pools and unlabeled LS-Rg, were incubated in HSMC for 10–20 min at 4° C., room temperature or 37° C., filtered, and then immediately washed with 4 ml HSMC at the same temperature. The filters were air-dried and counted in a Beckman LS6500 liquid scintillation counter without fluor.
(§2) The dissociation constants for representative ligands from rounds 13 and 14, including all orphans, were determined by nitrocellulose filter binding experiments and are listed in Table IX. These calculations assume two RNA ligand binding sites per chimera. The affinity of random RNA cannot be reliably determined but is estimated to be approximately 10 µM.

P-selectin (PS-Rg) [2] = biological target: T2, P-selectin (PS-Rg) (Homo sapiens, UniProt P16109 P16109:42-321); assay: filter; 4 C, HSMC; conditions: tags: human IgG1 Fc fusion (provided by A. Varki); chain copies: 2; label: 32P; hairpin
T2 chain: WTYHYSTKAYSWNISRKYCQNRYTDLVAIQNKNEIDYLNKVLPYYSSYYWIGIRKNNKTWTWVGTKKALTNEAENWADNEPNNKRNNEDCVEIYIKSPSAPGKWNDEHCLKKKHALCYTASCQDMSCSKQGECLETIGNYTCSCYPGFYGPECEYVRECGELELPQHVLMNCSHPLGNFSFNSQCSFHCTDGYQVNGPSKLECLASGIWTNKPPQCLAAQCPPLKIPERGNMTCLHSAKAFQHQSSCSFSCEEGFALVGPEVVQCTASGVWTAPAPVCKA
Procedure: as §1
(§3) The affinity of L-selectin ligands to ES-Rg, PS-Rg and CD22β-Rg were determined by nitrocellulose partitioning. […] In general, a ligand's affinity for ES-Rg is 10^3-fold lower and that for PS-Rg is about 10^4-fold less than for LS-Rg. […] The specificity of oligonucleotide ligand binding contrasts sharply with the binding of cognate carbohydrates by the selectins and confirms the assertion that SELEX ligands will have greater specificity than carbohydrate ligands.
(§4) *Dissociation constants were determined at 4° C. in HSMC buffer.

L-selectin (LS-Rg) [3] = biological target: T1, L-selectin (LS-Rg); assay: filter; 4 C, HSMC; conditions: tags: human IgG2 Fc fusion (provided by A. Varki); label: 32P; no stem
Procedure: as §1, §2

E-selectin (ES-Rg) [4] = biological target: T3, E-selectin (ES-Rg) (Homo sapiens, UniProt P16581 P16581:22-556); assay: filter; 4 C, HSMC; conditions: tags: human IgG1 Fc fusion (provided by A. Varki), chain copies: 2, label: 32P
T3 chain: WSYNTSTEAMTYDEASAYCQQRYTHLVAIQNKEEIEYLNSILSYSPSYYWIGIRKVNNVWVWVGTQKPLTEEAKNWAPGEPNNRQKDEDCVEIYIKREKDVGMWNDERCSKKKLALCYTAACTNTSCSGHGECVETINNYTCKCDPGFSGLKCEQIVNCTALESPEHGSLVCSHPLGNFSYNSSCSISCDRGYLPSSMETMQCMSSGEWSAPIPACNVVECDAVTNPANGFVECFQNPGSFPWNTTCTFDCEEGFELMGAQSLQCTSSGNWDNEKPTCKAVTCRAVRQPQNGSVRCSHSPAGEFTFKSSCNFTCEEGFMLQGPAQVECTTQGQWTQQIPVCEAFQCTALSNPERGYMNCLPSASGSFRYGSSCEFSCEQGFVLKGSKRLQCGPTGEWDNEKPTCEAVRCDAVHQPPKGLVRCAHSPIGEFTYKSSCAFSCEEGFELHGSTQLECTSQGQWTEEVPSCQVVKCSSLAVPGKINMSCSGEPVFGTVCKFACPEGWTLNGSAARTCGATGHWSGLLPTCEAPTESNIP
Procedure: as §1, §3, §4

L-selectin (LS-Rg) [5] = biological target: T1, L-selectin (LS-Rg); assay: filter; 4 C, HSMC; 18 nM at room temp; conditions: tags: human IgG2 Fc fusion (provided by A. Varki); label: 32P
Procedure: as §1, §2

L-selectin (LS-Rg) [6] = biological target: T1, L-selectin (LS-Rg); assay: filter; 4 C, HSMC; 14.9 nM at room temp; conditions: tags: human IgG2 Fc fusion (provided by A. Varki); label: 32P; hairpin
Procedure: as §1, §2

P-selectin (PS-Rg) [7] = biological target: T2, P-selectin (PS-Rg); assay: filter; room temp, Ca/Mg buffer; conditions: tags: lectin, EGF and first two CRD domains fused to human IgG1 Fc (provided by A. Varki); chain copies: 2 (dimeric Fc chimera, inferred)
E-selectin (ES-Rg) [8] = biological target: T3, E-selectin (ES-Rg); assay: filter; room temp, Ca/Mg buffer; conditions: tags: extracellular domain fused to human IgG1 Fc (provided by A. Varki); chain copies: 2 (dimeric Fc chimera, inferred)
L-selectin (LS-Rg) [9] = biological target: T1, L-selectin (LS-Rg); assay: filter; room temp; 260 pM at 37 C; conditions: tags: human IgG2 Fc fusion (provided by A. Varki); label: 32P; hairpin
P-selectin (PS-Rg) [10] = biological target: T2, P-selectin (PS-Rg); assay: filter; room temp; conditions: tags: human IgG1 Fc fusion (provided by A. Varki); chain copies: 2; label: 32P; hairpin
Procedure: (§5) RNA was reverse transcribed into cDNA by AMV reverse transcriptase at 48° C. for 60 min in 50 mM Tris-Cl pH (8.3), 60 mM NaCl, 6 mM Mg(OAc)_2, 10 mM DTT, 100 pmol DNA primer, 0.4 mM each of dNTPs, and 0.4 unit/µl AMV RT. […] C) Nitrocellulose Filter Partitioning As described in SELEX Patent Applications, the nitrocellulose filter partitioning method was used to determine the affinity of RNA ligands for WGA and for other proteins. Filter discs (nitrocellulose/cellulose acetate mixed matrix, 0.45 µm pore size, Millipore; or pure nitrocellulose, 0.45 µm pore size, Bio-Rad) were placed on a vacuum manifold and washed with 4 ml of HBSS buffer under vacuum. Reaction mixtures, containing ^32P labeled RNA pools and unlabeled WGA, were incubated in HBSS for 10 min at room temperature, filtered, and then immediately washed with 4 ml HBSS. The filters were air-dried and counted in a Beckman LS6500 liquid scintillation counter without fluor. WGA is a homodimer, molecular weight 43.2 kD, with 4 GlcNAc binding sites per dimer. For affinity calculations, we assume one RNA ligand binding site per monomer (two per dimer). The monomer concentration is defined as 2 times the dimer concentration. […]
(§6) The affinity of representative cloned ligands for LS-Rg, ES-Rg, PS-Rg, CD22β-Rg and WGA was determined by nitrocellulose partitioning and the results shown in Table XIV. […]
(§7) *Kds were determined at room temperature.

E-selectin (ES-Rg) [11] = biological target: T3, E-selectin (ES-Rg); assay: filter; room temp; conditions: tags: human IgG1 Fc fusion (provided by A. Varki); chain copies: 2; label: 32P; hairpin
Procedure: as §5, §6, §7

L-selectin (LS-Rg) [12] = biological target: T1, L-selectin (LS-Rg); assay: filter; room temp, Ca/Mg; 160 pM at 37 C; conditions: tags: human IgG2 Fc fusion (provided by A. Varki); label: 32P; hairpin
L-selectin (LS-Rg) [13] = biological target: T1, L-selectin (LS-Rg); assay: filter; 4 C, HSMC; 75 nM at room temp; conditions: tags: human IgG2 Fc fusion (provided by A. Varki); label: 32P; hairpin
Procedure: as §1, §2

L-selectin (LS-Rg) [14] = biological target: T1, L-selectin (LS-Rg); assay: filter; room temp; 370 pM at 37 C; conditions: tags: human IgG2 Fc fusion (provided by A. Varki); label: 32P
[15] = biological target: T4, wheat germ agglutinin (WGA) (Triticum vulgare, UniProt P10968 P10968:27-197); assay: filter; HBSS, room temp; 19.2 nM in Table IV; conditions: tags: free lectin, E Y Laboratories; label: 32P; hairpin
T4 sequence: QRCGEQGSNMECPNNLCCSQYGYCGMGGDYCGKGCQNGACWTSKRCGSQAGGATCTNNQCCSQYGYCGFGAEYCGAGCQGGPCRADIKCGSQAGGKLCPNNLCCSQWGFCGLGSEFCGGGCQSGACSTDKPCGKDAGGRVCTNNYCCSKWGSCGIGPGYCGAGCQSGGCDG
Procedure: The specifically eluted fraction was processed for use in the following round. Fractions eluted from immobilized WGA were heated at 90° C. for 5 minutes in 1% SDS, 2% β-mercaptoethanol and extracted with phenol/chloroform. RNA was reverse transcribed into cDNA by AMV reverse transcriptase at 48° C. for 60 min in 50 mM Tris-Cl pH (8.3), 60 mM NaCl, 6 mM Mg(OAc)_2, 10 mM DTT, 100 pmol DNA primer, 0.4 mM each of dNTPs, and 0.4 unit/µl AMV RT. […] C) Nitrocellulose Filter Partitioning As described in SELEX Patent Applications, the nitrocellulose filter partitioning method was used to determine the affinity of RNA ligands for WGA and for other proteins. Filter discs (nitrocellulose/cellulose acetate mixed matrix, 0.45 µm pore size, Millipore; or pure nitrocellulose, 0.45 µm pore size, Bio-Rad) were placed on a vacuum manifold and washed with 4 ml of HBSS buffer under vacuum. Reaction mixtures, containing ^32P labeled RNA pools and unlabeled WGA, were incubated in HBSS for 10 min at room temperature, filtered, and then immediately washed with 4 ml HBSS. The filters were air-dried and counted in a Beckman LS6500 liquid scintillation counter without fluor. WGA is a homodimer, molecular weight 43.2 kD, with 4 GlcNAc binding sites per dimer. For affinity calculations, we assume one RNA ligand binding site per monomer (two per dimer). […]

L-selectin (LS-Rg) [16] = biological target: T1, L-selectin (LS-Rg); assay: filter; 4 C, HSMC; 15.4 nM at room temp; conditions: tags: human IgG2 Fc fusion (provided by A. Varki); label: 32P; hairpin
Procedure: as §1, §2

B1: F13.48 (ssRNA)
RNA: GGGAGGACGAUGCGGAAAGUUAUGAGUCCGUAUAUCAAGGUCGACAUGUGUGAAUCAGACGACUCGCCCGA
modifications: 2'-NH2 all C and U
L-selectin (LS-Rg) [1]
  Kd: 15.9 nM
P-selectin (PS-Rg) [2]
  Kd: 720 nM

B2: F14.25 (ssRNA)
RNA: GGGAGGACGAUGCGGUAGAGGUAGUAUGUGUGGGAGAUGAAAAUACUGUGGAAAGCAGACGACUCGCCCGA
modifications: 2'-NH2 all C and U
L-selectin (LS-Rg) [3]
  Kd: 1300 nM

B3: F13.51 (ssRNA)
RNA: GGGAGGACGAUGCGGAUGUAAAUCUAGGCAGAAACGUAGGGCAUCCACCGCAACGACAGACGACUCGCCCGA
modifications: 2'-NH2 all C and U
E-selectin (ES-Rg) [4]
  Kd: 2000 nM
L-selectin (LS-Rg) [5]
  Kd: 8.8 nM

B4: F13.32 (ssRNA)
RNA: GGGAGGACGAUGCGGCGCGUAUGUGUGAAAGCGUGUGCACGGAGGCGUCUACAAUCAGACGACUCGCCCGA
modifications: 2'-NH2 all C and U
L-selectin (LS-Rg) [6]
  Kd: 15.7 nM
P-selectin (PS-Rg) [2]
  Kd: 17000 nM

B5: 230 (ssDNA)
DNA: CTACCTACGATCTGACTAGCTGCACACCTGAGGGTTACAAGGCGCTAGACGTAACCTCTCGCTTACTCTCATGTAGTTCC
P-selectin (PS-Rg) [7]
  Kd: 600 nM
E-selectin (ES-Rg) [8]
  Kd: 19 nM
L-selectin (LS-Rg) [9]
  Kd: 0.057 nM

B6: 227 (ssDNA)
DNA: CTACCTACGATCTGACTAGCCGGACATGAGCGTTACAAGGTGCTAAACGTAACGTACTTGCTTACTCTCATGTAGTTCC
P-selectin (PS-Rg) [10]
  Kd: 560 nM
E-selectin (ES-Rg) [11]
  Kd: 33 nM
L-selectin (LS-Rg) [12]
  Kd: 0.043 nM

B7: F13.57 (ssRNA)
RNA: GGGAGGACGAUGCGGUAACAUAAAGUAGCGCGUCUGUGAGAGGAAGUGCCUGGAUCAGACGACUCGCCCGA
modifications: 2'-NH2 all C and U
E-selectin (ES-Rg) [4]; hairpin
  Kd: 2700 nM
L-selectin (LS-Rg) [13]
  Kd: 3 nM

B8: 174 (ssDNA)
DNA: CTACCTACGATCTGACTAGCCATTCACCATGGCCCCTTCCTACGTATGTTCTGCGGGTGGCTTACTCTCATGTAGTTCC
L-selectin (LS-Rg) [14]
  Kd: 0.043 nM
P-selectin (PS-Rg) [7]
  Kd: 380 nM
E-selectin (ES-Rg) [8]
  Kd: 28 nM

B9: 11.24 (ssRNA)
RNA: GGGAAAAGCGAAUCAUACACAAGACGGCUGUGUGGUGUUGGAGCGUCAUAGUAGGAGUCGUCACGAACCAAGGCGCUCCGCCAGAGACCAACCGAGAA
modifications: 2'-NH2 all C and U
[15]
  Kd: 19.4 nM

B10: F14.9 (ssRNA)
RNA: GGGAGGACGAUGCGGAAACCUUGAUGUGUGAUAGAGCAUCCCCCAGGCGACGUACCAGACGACUCGCCCGA
modifications: 2'-NH2 all C and U
L-selectin (LS-Rg) [16]
  Kd: 8.2 nM
